For one molecule, EC50 (M), STAT3-Luc reporter, CTLL2/STAT3-Luc cells, Fold induction and Max fold induction, STAT3-Luc reporter, CTLL2/STAT3-Luc cells results are on record in US20250066441A1.

Experiment in all cases: cell-based or functional assay
In test [1] the target is murine IL12 receptor complex (IL12Rβ1 and IL12Rβ2) on cells (murine) (UniProt Q60837).
Test [2] has the same target. This is another data set of the same source.
For test [3] the target is unchanged. The source holds these as a separate data set.

Read-outs that look alike come from different tables or passages of the source.

Chain of murine IL12 receptor complex (IL12Rβ1 and IL12Rβ2) on cells (murine) (Q60837 20-738, chain 1 of 2): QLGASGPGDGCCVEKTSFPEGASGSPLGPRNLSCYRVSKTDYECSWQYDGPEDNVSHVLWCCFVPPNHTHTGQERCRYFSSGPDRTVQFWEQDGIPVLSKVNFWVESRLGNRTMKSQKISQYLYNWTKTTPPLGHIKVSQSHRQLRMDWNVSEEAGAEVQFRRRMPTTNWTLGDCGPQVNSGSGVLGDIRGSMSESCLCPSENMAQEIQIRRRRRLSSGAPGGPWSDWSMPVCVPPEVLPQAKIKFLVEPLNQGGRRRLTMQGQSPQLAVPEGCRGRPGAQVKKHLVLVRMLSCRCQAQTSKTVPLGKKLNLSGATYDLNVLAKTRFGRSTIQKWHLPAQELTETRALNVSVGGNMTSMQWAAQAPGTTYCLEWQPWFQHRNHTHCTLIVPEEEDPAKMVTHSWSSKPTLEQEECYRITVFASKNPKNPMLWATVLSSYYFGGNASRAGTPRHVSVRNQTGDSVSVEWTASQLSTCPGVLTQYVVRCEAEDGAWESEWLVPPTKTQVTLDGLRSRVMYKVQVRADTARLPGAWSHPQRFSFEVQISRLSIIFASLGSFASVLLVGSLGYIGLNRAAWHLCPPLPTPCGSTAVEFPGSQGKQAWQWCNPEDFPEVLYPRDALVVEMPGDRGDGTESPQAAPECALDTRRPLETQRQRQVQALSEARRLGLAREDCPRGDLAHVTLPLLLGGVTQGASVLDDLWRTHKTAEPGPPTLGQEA
Chain of murine IL12 receptor complex (IL12Rβ1 and IL12Rβ2) on cells (murine) (P97378 24-874, chain 2 of 2, further chain): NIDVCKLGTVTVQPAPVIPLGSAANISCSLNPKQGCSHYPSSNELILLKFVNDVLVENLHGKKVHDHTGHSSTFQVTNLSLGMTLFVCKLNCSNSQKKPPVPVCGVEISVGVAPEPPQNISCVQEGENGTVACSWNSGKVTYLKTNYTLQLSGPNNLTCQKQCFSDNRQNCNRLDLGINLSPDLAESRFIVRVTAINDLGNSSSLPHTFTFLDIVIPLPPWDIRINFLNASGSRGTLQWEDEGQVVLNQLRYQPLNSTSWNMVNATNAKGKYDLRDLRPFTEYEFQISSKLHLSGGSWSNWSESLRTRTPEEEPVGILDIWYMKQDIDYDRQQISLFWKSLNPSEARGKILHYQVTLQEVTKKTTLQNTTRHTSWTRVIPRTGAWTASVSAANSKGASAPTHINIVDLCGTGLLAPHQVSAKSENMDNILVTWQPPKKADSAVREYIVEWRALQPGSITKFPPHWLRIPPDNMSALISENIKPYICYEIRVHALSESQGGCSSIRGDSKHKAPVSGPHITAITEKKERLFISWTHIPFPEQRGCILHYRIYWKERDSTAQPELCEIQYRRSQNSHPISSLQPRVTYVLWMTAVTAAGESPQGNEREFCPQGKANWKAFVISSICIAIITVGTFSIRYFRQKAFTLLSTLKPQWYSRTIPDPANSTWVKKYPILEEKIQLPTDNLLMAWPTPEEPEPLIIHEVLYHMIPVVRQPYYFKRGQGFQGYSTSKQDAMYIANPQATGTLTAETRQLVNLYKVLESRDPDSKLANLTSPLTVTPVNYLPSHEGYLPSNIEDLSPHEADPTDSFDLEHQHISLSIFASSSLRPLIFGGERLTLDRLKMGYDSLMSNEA

B1: Recomb mIL12 (ligand, mouse)
chain 1: MWELEKDVYVVEVDWTPDAPGETVNLTCDTPEEDDITWTSDQRHGVIGSGKTLTITVKEFLDAGQYTCHKGGETLSHSHLLLHKKENGIWSTEILKNFKNKTFLKCEAPNYSGRFTCSWLVQRNMDLKFNIKSSSSSPDSRAVTCGMASLSAEKVTLDQRDYEKYSVSCQEDVTCPTAEETLPIELALEARQQNKYENYSTSFFIRDIIKPDPPKNLQMKPLKNSQVEVSWEYPDSWSTPHSYFSLKFFVRIQRKKEKMKETEEGCNQKGAFLVEKTSTEVQCKGGNVCVQAQDRYYNSSCSKWACVPCRVRS
chain 2: RVIPVSGPARCLSQSRNLLKTTDDMVKTAREKLKHYSCTAEDIDHEDITRDQTSTLKTCLPLELHKNESCLATRETSSTTRGSCLPPQKTSLMMTLCLGSIYEDLKMYQTEFQAINAALQNHNHQQIILDKGMLVAIDELMQSLNHNGETLRQKPPVGEADPYRVKMKLCILLHAFSTRVVTINRVMGYLSSA
B1: in test [1], the EC50 (M), STAT3-Luc reporter, CTLL2/STAT3-Luc cells came to 5.56e-11 M; the Fold induction at 6.25 nM, STAT3-Luc reporter, CTLL2/STAT3-Luc cells amounted to 12.2 fold; the Max fold induction, STAT3-Luc reporter, CTLL2/STAT3-Luc cells was 12.4 fold. Further, in test [2], the EC50 (M), STAT3-Luc reporter, CTLL2/STAT3-Luc cells is 3.46e-11 M; the Fold induction at 20 nM, STAT3-Luc reporter, CTLL2/STAT3-Luc cells was found to be 18.8 fold; the Max fold induction, STAT3-Luc reporter, CTLL2/STAT3-Luc cells was found to be 19.1 fold. In test [3], this molecule returned an EC50 (M), STAT3-Luc reporter, CTLL2/STAT3-Luc cells of 3.71e-10 M and a Max fold induction, STAT3-Luc reporter, CTLL2/STAT3-Luc cells of 17.8 fold.
